From article doi:10.1101/2021.03.12.434960 (bioRxiv, 2021)

B2: full-length human KIF5C, C-terminal mScarlet-StrepII (natural protein)
chain: MADPAECSIKVMCRFRPLNEAEILRGDKFIPKFKGDETVVIGQGKPYVFDRVLPPNTTQEQVYNACAKQIVKDVLEGYNGTIFAYGQTSSGKTHTMEGKLHDPQLMGIIPRIAHDIFDHIYSMDENLEFHIKVSYFEIYLDKIRDLLDVSKTNLAVHEDKNRVPYVKGCTERFVSSPEEVMDVIDEGKANRHVAVTNMNEHSSRSHSIFLINIKQENVETEKKLSGKLYLVDLAGSEKVSKTGAEGAVLDEAKNINKSLSALGNVISALAEGTKTHVPYRDSKMTRILQDSLGGNCRTTIVICCSPSVFNEAETKSTLMFGQRAKTIKNTVSVNLELTAEEWKKKYEKEKEKNKTLKNVIQHLEMELNRWRNGEAVPEDEQISAKDQKNLEPCDNTPIIDNIAPVVAGISTEEKEKYDEEISSLYRQLDDKDDEINQQSQLAEKLKQQMLDQDELLASTRRDYEKIQEELTRLQIENEAAKDEVKEVLQALEELAVNYDQKSQEVEDKTRANEQLTDELAQKTTTLTTTQRELSQLQELSNHQKKRATEILNLLLKDLGEIGGIIGTNDVKTLADVNGVIEEEFTMARLYISKMKSEVKSLVNRSKQLESAQMDSNRKMNASERELAACQLLISQHEAKIKSLTDYMQNMEQKRRQLEESQDSLSEELAKLRAQEKMHEVSFQDKEKEHLTRLQDAEEMKKALEQQMESHREAHQKQLSRLRDEIEEKQKIIDEIRDLNQKLQLEQEKLSSDYNKLKIEDQEREMKLEKLLLLNDKREQAREDLKGLEETVSRELQTLHNLRKLFVQDLTTRVKKSVELDNDDGGGSAAQKQKISFLENNLEQLTKVHKQLVRDNADLRCELPKLEKRLRATAERVKALESALKEAKENAMRDRKRYQQEVDRIKEAVRAKNMARRAHSAQIAKPIRPGHYPASSPTAVHAIRGGGGSSSNSTHYQK

Assays:
[1] = molecular target: T1, full-length human KIF5A, C-terminal mScarlet-StrepII (human, UniProt Q12840 1-1032)
T1 sequence: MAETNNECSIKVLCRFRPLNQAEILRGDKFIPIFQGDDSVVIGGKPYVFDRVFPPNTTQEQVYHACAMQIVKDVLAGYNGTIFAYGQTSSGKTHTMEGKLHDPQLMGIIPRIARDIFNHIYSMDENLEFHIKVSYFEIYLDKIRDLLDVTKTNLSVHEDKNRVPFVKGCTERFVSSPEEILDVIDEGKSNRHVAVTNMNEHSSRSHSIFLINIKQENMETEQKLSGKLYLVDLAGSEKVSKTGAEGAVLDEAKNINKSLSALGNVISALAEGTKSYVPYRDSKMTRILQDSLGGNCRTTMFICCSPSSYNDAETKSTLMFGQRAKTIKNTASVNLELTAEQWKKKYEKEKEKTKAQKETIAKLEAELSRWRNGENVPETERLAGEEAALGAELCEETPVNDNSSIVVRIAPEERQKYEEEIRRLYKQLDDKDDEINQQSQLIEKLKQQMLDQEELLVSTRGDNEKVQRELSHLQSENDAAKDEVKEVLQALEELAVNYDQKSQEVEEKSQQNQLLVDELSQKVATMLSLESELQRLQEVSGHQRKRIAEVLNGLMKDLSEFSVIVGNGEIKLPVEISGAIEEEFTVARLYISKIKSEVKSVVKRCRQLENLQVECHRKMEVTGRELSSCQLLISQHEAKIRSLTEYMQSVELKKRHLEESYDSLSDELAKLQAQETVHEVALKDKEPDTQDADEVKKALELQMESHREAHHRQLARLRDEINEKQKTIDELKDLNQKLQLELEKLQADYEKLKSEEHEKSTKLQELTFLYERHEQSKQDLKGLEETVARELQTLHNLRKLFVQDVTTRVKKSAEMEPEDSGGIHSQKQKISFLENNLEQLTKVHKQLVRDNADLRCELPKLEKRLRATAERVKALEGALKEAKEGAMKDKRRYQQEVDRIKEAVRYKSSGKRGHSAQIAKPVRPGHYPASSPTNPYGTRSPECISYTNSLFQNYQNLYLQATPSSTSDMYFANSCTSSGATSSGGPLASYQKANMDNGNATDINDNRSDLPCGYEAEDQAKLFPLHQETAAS

[2] = molecular target: T2, full-length human KIF5B, C-terminal mScarlet-StrepII (human, UniProt P33176 1-963)
T2 sequence: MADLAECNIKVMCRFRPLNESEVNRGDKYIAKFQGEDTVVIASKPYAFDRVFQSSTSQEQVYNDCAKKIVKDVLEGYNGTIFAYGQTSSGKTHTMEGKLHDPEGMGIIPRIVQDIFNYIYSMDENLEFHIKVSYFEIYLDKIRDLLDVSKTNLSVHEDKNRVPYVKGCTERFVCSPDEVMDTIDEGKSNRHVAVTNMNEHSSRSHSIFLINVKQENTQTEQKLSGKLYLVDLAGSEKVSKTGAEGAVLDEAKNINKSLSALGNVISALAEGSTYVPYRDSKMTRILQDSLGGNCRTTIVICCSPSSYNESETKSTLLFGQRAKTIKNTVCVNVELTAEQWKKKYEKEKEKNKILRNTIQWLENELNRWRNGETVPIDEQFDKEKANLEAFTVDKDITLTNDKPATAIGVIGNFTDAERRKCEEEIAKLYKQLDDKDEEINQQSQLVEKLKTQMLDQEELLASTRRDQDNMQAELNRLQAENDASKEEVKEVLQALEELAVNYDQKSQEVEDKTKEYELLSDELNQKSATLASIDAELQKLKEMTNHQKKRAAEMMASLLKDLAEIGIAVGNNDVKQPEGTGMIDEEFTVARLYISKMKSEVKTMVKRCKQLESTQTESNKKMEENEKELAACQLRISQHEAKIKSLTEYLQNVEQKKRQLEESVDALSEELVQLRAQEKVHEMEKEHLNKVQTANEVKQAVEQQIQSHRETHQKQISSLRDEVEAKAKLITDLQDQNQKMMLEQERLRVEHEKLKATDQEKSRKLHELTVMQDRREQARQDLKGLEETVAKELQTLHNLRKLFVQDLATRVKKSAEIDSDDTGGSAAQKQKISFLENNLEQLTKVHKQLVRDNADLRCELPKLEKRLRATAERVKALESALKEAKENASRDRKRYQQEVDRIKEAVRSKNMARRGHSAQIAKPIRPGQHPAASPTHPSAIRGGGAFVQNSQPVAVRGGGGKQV

[3] = molecular target: B2
SEC-MALS = molecular target: the molecule itself; assay: SEC-MALS
[4] = molecular target: T3, KIF5B-Δhinge (Δ505-610), C-terminal mScarlet-StrepII (human, UniProt P33176 1-963, Δ505-610); assay: TIRF microscopy on surface-bound microtubules
T3 sequence: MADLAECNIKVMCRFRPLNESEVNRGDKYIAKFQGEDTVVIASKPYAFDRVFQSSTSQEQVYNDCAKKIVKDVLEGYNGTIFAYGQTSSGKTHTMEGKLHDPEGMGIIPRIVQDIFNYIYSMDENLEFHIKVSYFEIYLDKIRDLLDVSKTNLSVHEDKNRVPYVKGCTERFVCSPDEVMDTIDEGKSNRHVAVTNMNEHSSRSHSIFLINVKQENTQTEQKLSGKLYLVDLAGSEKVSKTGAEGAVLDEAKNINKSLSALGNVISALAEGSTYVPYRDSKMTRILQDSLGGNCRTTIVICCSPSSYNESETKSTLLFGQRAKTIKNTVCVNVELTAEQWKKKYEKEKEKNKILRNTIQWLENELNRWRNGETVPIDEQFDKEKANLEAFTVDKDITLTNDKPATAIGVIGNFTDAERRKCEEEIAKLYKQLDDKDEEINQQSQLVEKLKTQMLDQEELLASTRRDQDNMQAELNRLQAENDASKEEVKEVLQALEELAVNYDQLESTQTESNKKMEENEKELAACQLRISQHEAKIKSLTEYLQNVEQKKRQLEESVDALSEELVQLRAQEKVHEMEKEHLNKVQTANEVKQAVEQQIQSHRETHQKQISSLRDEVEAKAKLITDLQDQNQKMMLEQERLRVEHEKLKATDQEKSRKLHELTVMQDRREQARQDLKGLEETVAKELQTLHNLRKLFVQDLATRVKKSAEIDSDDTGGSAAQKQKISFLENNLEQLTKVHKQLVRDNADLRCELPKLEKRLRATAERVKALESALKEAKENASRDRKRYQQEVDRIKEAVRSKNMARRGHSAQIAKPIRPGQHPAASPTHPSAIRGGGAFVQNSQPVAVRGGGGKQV

B1: human KLC1 with N-terminal 6xHis-FLAG (co-expressed with KIF5) (natural protein)
chain: MYDNMSTMVYIKEDKLEKLTQDEIISKTKQVIQGLEALKNEHNSILQSLLETLKCLKKDDESNLVEEKSNMIRKSLEMLELGLSEAQVMMALSNHLNAVESEKQKLRAQVRRLCQENQWLRDELANTQQKLQKSEQSVAQLEEEKKHLEFMNQLKKYDDDISPSEDKDTDSTKEPLDDLFPNDEDDPGQGIQQQHSSAAAAAQQGGYEIPARLRTLHNLVIQYASQGRYEVAVPLCKQALEDLEKTSGHDHPDVATMLNILALVYRDQNKYKDAANLLNDALAIREKTLGKDHPAVAATLNNLAVLYGKRGKYKEAEPLCKRALEIREKVLGKDHPDVAKQLNNLALLCQNQGKYEEVEYYYQRALEIYQTKLGPDDPNVAKTKNNLASCYLKQGKFKQAETLYKEILTRAHEREFGSVDDENKPIWMHAEEREECKGKQKDGTSFGEYGGWYKACKVDSPTVTTTLKNLGALYRRQGKFEAAETLEEAAMRSRKQGLDNVHKQRVAEVLNDPENMEKRRSRESLNVDVVKYESGPDGGEEVSMSVEWNGGVSGRASFCGKRQQQQWPGRRHR
- stoichiometry N [1]: ~0.8 KLC1 per KHC
- stoichiometry N [2]: ~0.8 KLC1 per KHC
- stoichiometry N [3]: ~0.8 KLC1 per KHC

Binder: B2
- stoichiometry N (SEC-MALS): 2

B3: KLC1-CC (aa 1-200), N-terminal 6xHis-2xStrepII-sfGFP (domain or fragment)
chain: MYDNMSTMVYIKEDKLEKLTQDEIISKTKQVIQGLEALKNEHNSILQSLLETLKCLKKDDESNLVEEKSNMIRKSLEMLELGLSEAQVMMALSNHLNAVESEKQKLRAQVRRLCQENQWLRDELANTQQKLQKSEQSVAQLEEEKKHLEFMNQLKKYDDDISPSEDKDTDSTKEPLDDLFPNDEDDPGQGIQQQHSSAAA
- binding result [4]: binds
